The text below walks through data of IntAct's records for PubMed 39009827.

B1: Cell division control protein 45 homolog (Homo sapiens), O75419 (parent)
chain: MFVSDFRKEFYEVVQSQRVLLFVASDVDALCACKILQALFQCDHVQYTLVPVSGWQELETAFLEHKEQFHYFILINCGANVDLLDILQPDEDTIFFVCDTHRPVNVVNVYNDTQIKLLIKQDDDLEVPAYEDIFRDEEEDEEHSGNDSDGSEPSEKRTRLEEEIVEQTMRRRQRREWEARRRDILFDYEQYEYHGTSSAMVMFELAWMLSKDLNDMLWWAIVGLTDQWVQDKITQMKYVTDVGVLQRHVSRHNHRNEDEENTLSVDCTRISFEYDLRLVLYQHWSLHDSLCNTSYTAARFKLWSVHGQKRLQEFLADMGLPLKQVKQKFQAMDISLKENLREMIEESANKFGMKDMRVQTFSIHFGFKHKFLASDVVFATMSLMESPEKDGSGTDHFIQALDSLSRSNLDKLYHGLELAKKQLRATQQTIASCLCTNLVISQGPFLYCSLMEGTPDVMLFSRPASLSLLSKHLLKSFVCSTKNRRCKLLPLVMAAPLSMEHGTVTVVGIPPETDSSDRKNFFGRAFEKAAESTSSRMLHNHFDLSVIELKAEDRSKFLDALISLLS
B2: Epithelial sodium channel subunit beta (Homo sapiens), P51168 (parent)
chain: MHVKKYLLKGLHRLQKGPGYTYKELLVWYCDNTNTHGPKRIICEGPKKKAMWFLLTLLFAALVCWQWGIFIRTYLSWEVSVSLSVGFKTMDFPAVTICNASPFKYSKIKHLLKDLDELMEAVLERILAPELSHANATRNLNFSIWNHTPLVLIDERNPHHPMVLDLFGDNHNGLTSSSASEKICNAHGCKMAMRLCSLNRTQCTFRNFTSATQALTEWYILQATNIFAQVPQQELVEMSYPGEQMILACLFGAEPCNYRNFTSIFYPHYGNCYIFNWGMTEKALPSANPGTEFGLKLILDIGQEDYVPFLASTAGVRLMLHEQRSYPFIRDEGIYAMSGTETSIGVLVDKLQRMGEPYSPCTVNGSEVPVQNFYSDYNTTYSIQACLRSCFQDHMIRNCNCGHYLYPLPRGEKYCNNRDFPDWAHCYSDLQMSVAQRETCIGMCKESCNDTQYKMTISMADWPSEASEDWIFHVLSQERDQSTNITLSRKGIVKLNIYFQEFNYRTIEESAANNIVWLLSNLGGQFGFWMGGSVLCLIEFGEIIIDFVWITIIKLVALAKSLRQRRAQASYAGPPPTVAELVEAHTNFGFQPDTAPRSPNTGPYPSEQALPIPGTPPPNYDSLRLQPLDVIESDSEGDAI
B3: Keratin, type II cytoskeletal 1 (Homo sapiens), P04264 (parent)
chain: MSRQFSSRSGYRSGGGFSSGSAGIINYQRRTTSSSTRRSGGGGGRFSSCGGGGGSFGAGGGFGSRSLVNLGGSKSISISVARGGGRGSGFGGGYGGGGFGGGGFGGGGFGGGGIGGGGFGGFGSGGGGFGGGGFGGGGYGGGYGPVCPPGGIQEVTINQSLLQPLNVEIDPEIQKVKSREREQIKSLNNQFASFIDKVRFLEQQNQVLQTKWELLQQVDTSTRTHNLEPYFESFINNLRRRVDQLKSDQSRLDSELKNMQDMVEDYRNKYEDEINKRTNAENEFVTIKKDVDGAYMTKVDLQAKLDNLQQEIDFLTALYQAELSQMQTQISETNVILSMDNNRSLDLDSIIAEVKAQYEDIAQKSKAEAESLYQSKYEELQITAGRHGDSVRNSKIEISELNRVIQRLRSEIDNVKKQISNLQQSISDAEQRGENALKDAKNKLNDLEDALQQAKEDLARLLRDYQELMNTKLALDLEIATYRTLLEGEESRMSGECAPNVSVSVSTSHTTISGGGSRGGGGGGYGSGGSSYGSGGGSYGSGGGGGGGRGSYGSGGSSYGSGGGSYGSGGGGGGHGSYGSGSSSGGYRGGSGGGGGGSSGGRGSGGGSSGGSIGGRGSSSGGVKSSGGSSSVKFVSTTYSGVTR
B4: BCL11 transcription factor A (Homo sapiens), Q9H165 (parent)
chain: MSRRKQGKPQHLSKREFSPEPLEAILTDDEPDHGPLGAPEGDHDLLTCGQCQMNFPLGDILIFIEHKRKQCNGSLCLEKAVDKPPSPSPIEMKKASNPVEVGIQVTPEDDDCLSTSSRGICPKQEHIADKLLHWRGLSSPRSAHGALIPTPGMSAEYAPQGICKDEPSSYTCTTCKQPFTSAWFLLQHAQNTHGLRIYLESEHGSPLTPRVGIPSGLGAECPSQPPLHGIHIADNNPFNLLRIPGSVSREASGLAEGRFPPTPPLFSPPPRHHLDPHRIERLGAEEMALATHHPSAFDRVLRLNPMAMEPPAMDFSRRLRELAGNTSSPPLSPGRPSPMQRLLQPFQPGSKPPFLATPPLPPLQSAPPPSQPPVKSKSCEFCGKTFKFQSNLVVHRRSHTGEKPYKCNLCDHACTQASKLKRHMKTHMHKSSPMTVKSDDGLSTASSPEPGTSDLVGSASSALKSVVAKFKSENDPNLIPENGDEEEEEDDEEEEEEEEEEEEELTESERVDYGFGLSLEAARHHENSSRGAVVGVGDESRALPDVMQGMVLSSMQHFSEAFHQVLGEKHKRGHLAEAEGHRDTCDEDSVAGESDRIDDGTVNGRGCSPGESASGGLSKKLLLGSPSSLSPFSKRIKLEKEFDLPPAAMPNTENVYSQWLAGYAASRQLKDPFLSFGDSRQSPFASSSEHSSENGSLRFSTPPGELDGGISGRSGTGSGGSTPHISGPGPGRPSSKEGRRSDTCEYCGKVFKNCSNLTVHRRSHTGERPYKCELCNYACAQSSKLTRHMKTHGQVGKDVYKCEICKMPFSVYSTLEKHMKKWHSDRVLNNDIKTE
partner: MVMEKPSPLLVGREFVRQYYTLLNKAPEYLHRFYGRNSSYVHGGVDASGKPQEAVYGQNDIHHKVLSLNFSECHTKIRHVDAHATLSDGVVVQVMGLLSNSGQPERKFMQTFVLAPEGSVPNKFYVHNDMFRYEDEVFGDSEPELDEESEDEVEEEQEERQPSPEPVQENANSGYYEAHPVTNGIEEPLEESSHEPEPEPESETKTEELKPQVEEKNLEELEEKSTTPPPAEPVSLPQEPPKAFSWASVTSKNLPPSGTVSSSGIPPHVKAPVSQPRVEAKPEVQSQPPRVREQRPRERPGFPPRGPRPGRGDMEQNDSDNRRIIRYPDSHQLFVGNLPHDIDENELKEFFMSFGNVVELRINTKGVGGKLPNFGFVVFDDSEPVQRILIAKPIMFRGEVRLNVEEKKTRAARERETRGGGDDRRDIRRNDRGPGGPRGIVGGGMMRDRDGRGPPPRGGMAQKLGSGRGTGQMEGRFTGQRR
B5: Protein patched homolog 1 (Homo sapiens), Q13635 (parent)
chain: MASAGNAAEPQDRGGGGSGCIGAPGRPAGGGRRRRTGGLRRAAAPDRDYLHRPSYCDAAFALEQISKGKATGRKAPLWLRAKFQRLLFKLGCYIQKNCGKFLVVGLLIFGAFAVGLKAANLETNVEELWVEVGGRVSRELNYTRQKIGEEAMFNPQLMIQTPKEEGANVLTTEALLQHLDSALQASRVHVYMYNRQWKLEHLCYKSGELITETGYMDQIIEYLYPCLIITPLDCFWEGAKLQSGTAYLLGKPPLRWTNFDPLEFLEELKKINYQVDSWEEMLNKAEVGHGYMDRPCLNPADPDCPATAPNKNSTKPLDMALVLNGGCHGLSRKYMHWQEELIVGGTVKNSTGKLVSAHALQTMFQLMTPKQMYEHFKGYEYVSHINWNEDKAAAILEAWQRTYVEVVHQSVAQNSTQKVLSFTTTTLDDILKSFSDVSVIRVASGYLLMLAYACLTMLRWDCSKSQGAVGLAGVLLVALSVAAGLGLCSLIGISFNAATTQVLPFLALGVGVDDVFLLAHAFSETGQNKRIPFEDRTGECLKRTGASVALTSISNVTAFFMAALIPIPALRAFSLQAAVVVVFNFAMVLLIFPAILSMDLYRREDRRLDIFCCFTSPCVSRVIQVEPQAYTDTHDNTRYSPPPPYSSHSFAHETQITMQSTVQLRTEYDPHTHVYYTTAEPRSEISVQPVTVTQDTLSCQSPESTSSTRDLLSQFSDSSLHCLEPPCTKWTLSSFAEKHYAPFLLKPKAKVVVIFLFLGLLGVSLYGTTRVRDGLDLTDIVPRETREYDFIAAQFKYFSFYNMYIVTQKADYPNIQHLLYDLHRSFSNVKYVMLEENKQLPKMWLHYFRDWLQGLQDAFDSDWETGKIMPNNYKNGSDDGVLAYKLLVQTGSRDKPIDISQLTKQRLVDADGIINPSAFYIYLTAWVSNDPVAYAASQANIRPHRPEWVHDKADYMPETRLRIPAAEPIEYAQFPFYLNGLRDTSDFVEAIEKVRTICSNYTSLGLSSYPNGYPFLFWEQYIGLRHWLLLFISVVLACTFLVCAVFLLNPWTAGIIVMVLALMTVELFGMMGLIGIKLSAVPVVILIASVGIGVEFTVHVALAFLTAIGDKNRRAVLALEHMFAPVLDGAVSTLLGVLMLAGSEFDFIVRYFFAVLAILTILGVLNGLVLLPVLLSFFGPYPEVSPANGLNRLPTPSPEPPPSVVRFAMPPGHTHSGSDSSDSEYSSQTTVSGLSEELRHYEAQQGAGGPAHQVIVEATENPVFAHSTVVHPESRHHPPSNPRQQPHLDSGSLPPGRQGQQPRRDPPREGLWPPPYRPRRDAFEISTEGHSGPSNRARWGPRGARSHNPRNPASTAMGSSVPGYCQPITTVTASASVTVAVHPPPVPGPGRNPRGGLCPGYPETDHGLFEDPHVPFHVRCERRDSKVEVIELQDVECEERPRGSSSN
B6: Fanconi anemia group A protein (Homo sapiens), O15360 (parent)
chain: MSDSWVPNSASGQDPGGRRRAWAELLAGRVKREKYNPERAQKLKESAVRLLRSHQDLNALLLEVEGPLCKKLSLSKVIDCDSSEAYANHSSSFIGSALQDQASRLGVPVGILSAGMVASSVGQICTAPAETSHPVLLTVEQRKKLSSLLEFAQYLLAHSMFSRLSFCQELWKIQSSLLLEAVWHLHVQGIVSLQELLESHPDMHAVGSWLFRNLCCLCEQMEASCQHADVARAMLSDFVQMFVLRGFQKNSDLRRTVEPEKMPQVTVDVLQRMLIFALDALAAGVQEESSTHKIVRCWFGVFSGHTLGSVISTDPLKRFFSHTLTQILTHSPVLKASDAVQMQREWSFARTHPLLTSLYRRLFVMLSAEELVGHLQEVLETQEVHWQRVLSFVSALVVCFPEAQQLLEDWVARLMAQAFESCQLDSMVTAFLVVRQAALEGPSAFLSYADWFKASFGSTRGYHGCSKKALVFLFTFLSELVPFESPRYLQVHILHPPLVPGKYRSLLTDYISLAKTRLADLKVSIENMGLYEDLSSAGDITEPHSQALQDVEKAIMVFEHTGNIPVTVMEASIFRRPYYVSHFLPALLTPRVLPKVPDSRVAFIESLKRADKIPPSLYSTYCQACSAAEEKPEDAALGVRAEPNSAEEPLGQLTAALGELRASMTDPSQRDVISAQVAVISERLRAVLGHNEDDSSVEISKIQLSINTPRLEPREHMAVDLLLTSFCQNLMAASSVAPPERQGPWAALFVRTMCGRVLPAVLTRLCQLLRHQGPSLSAPHVLGLAALAVHLGESRSALPEVDVGPPAPGAGLPVPALFDSLLTCRTRDSLFFCLKFCTAAISYSLCKFSSQSRDTLCSCLSPGLIKKFQFLMFRLFSEARQPLSEEDVASLSWRPLHLPSADWQRAALSLWTHRTFREVLKEEDVHLTYQDWLHLELEIQPEADALSDTERQDFHQWAIHEHFLPESSASGGCDGDLQAACTILVNALMDFHQSSRSYDHSENSDLVFGGRTGNEDIISRLQEMVADLELQQDLIVPLGHTPSQEHFLFEIFRRRLQALTSGWSVAASLQRQRELLMYKRILLRLPSSVLCGSSFQAEQPITARCEQFFHLVNSEMRNFCSHGGALTQDITAHFFRGLLNACLRSRDPSLMVDFILAKCQTKCPLILTSALVWWPSLEPVLLCRWRRHCQSPLPRELQKLQEGRQFASDFLSPEAASPAPNPDWLSAAALHFAIQQVREENIRKQLKKLDCEREELLVFLFFFSLMGLLSSHLTSNSTTDLPKAFHVCAAILECLEKRKISWLALFQLTESDLRLGRLLLRVAPDQHTRLLPFAFYSLLSYFHEDAAIREEAFLHVAVDMYLKLVQLFVAGDTSTVSPPAGRSLELKGQGNPVELITKARLFLLQLIPRCPKKSFSHVAELLADRGDCDPEVSAALQSRQQAAPDADLSQEPHLF

One experiment covers variants of B1. Particulars: with ima3_human KPNA4, O00629.
Chain of ima3_human KPNA4, O00629 (O00629 whole entry): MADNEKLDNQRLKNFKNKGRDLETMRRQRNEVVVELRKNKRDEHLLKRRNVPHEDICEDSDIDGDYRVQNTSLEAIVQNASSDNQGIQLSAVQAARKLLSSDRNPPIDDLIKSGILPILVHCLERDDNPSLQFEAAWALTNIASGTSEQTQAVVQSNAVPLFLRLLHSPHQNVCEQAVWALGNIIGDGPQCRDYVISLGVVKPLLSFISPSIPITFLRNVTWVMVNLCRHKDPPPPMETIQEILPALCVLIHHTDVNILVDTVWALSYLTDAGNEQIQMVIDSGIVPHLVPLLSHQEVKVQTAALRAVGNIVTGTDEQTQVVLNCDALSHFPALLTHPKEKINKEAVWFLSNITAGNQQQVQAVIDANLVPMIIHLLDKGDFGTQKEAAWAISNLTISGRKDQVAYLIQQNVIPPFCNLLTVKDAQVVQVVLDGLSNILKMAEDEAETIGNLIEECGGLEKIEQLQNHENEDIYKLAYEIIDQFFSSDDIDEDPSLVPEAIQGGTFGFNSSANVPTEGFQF
Take R157C: the “effect of a mutation on the interaction” value is on record as “disrupting interaction strength”.

Variants of B1 are the subject of another experiment. Particulars: with ima8_human KPNA7, A9QM74.
Chain of ima8_human KPNA7, A9QM74 (A9QM74 whole entry): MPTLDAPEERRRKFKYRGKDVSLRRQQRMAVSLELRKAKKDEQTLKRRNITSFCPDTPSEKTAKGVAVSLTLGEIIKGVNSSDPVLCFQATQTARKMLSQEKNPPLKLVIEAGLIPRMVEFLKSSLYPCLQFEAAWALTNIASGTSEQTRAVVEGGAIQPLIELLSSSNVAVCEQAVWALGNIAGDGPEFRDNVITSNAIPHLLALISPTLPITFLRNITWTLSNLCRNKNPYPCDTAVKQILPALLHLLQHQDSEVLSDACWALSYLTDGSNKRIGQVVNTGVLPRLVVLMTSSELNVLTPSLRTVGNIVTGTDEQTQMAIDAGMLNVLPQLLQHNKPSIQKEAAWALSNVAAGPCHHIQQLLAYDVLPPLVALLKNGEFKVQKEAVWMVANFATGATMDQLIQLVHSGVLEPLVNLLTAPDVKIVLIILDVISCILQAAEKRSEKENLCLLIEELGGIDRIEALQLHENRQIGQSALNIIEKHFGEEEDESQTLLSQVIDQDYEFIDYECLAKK
R157C: the “effect of a mutation on the interaction” value is on record as “disrupting interaction strength”.

The variants in the next experiment derive from B1. To be noted: with ima3_human KPNA4, O00629. The source holds these as a separate data set.
In the case of R157C, the “effect of a mutation on the interaction” value is “decreasing interaction strength”.

The variants in another experiment derive from B2. To be noted: with nedd4_human NEDD4, P46934.
Chain of nedd4_human NEDD4, P46934 (P46934 whole entry): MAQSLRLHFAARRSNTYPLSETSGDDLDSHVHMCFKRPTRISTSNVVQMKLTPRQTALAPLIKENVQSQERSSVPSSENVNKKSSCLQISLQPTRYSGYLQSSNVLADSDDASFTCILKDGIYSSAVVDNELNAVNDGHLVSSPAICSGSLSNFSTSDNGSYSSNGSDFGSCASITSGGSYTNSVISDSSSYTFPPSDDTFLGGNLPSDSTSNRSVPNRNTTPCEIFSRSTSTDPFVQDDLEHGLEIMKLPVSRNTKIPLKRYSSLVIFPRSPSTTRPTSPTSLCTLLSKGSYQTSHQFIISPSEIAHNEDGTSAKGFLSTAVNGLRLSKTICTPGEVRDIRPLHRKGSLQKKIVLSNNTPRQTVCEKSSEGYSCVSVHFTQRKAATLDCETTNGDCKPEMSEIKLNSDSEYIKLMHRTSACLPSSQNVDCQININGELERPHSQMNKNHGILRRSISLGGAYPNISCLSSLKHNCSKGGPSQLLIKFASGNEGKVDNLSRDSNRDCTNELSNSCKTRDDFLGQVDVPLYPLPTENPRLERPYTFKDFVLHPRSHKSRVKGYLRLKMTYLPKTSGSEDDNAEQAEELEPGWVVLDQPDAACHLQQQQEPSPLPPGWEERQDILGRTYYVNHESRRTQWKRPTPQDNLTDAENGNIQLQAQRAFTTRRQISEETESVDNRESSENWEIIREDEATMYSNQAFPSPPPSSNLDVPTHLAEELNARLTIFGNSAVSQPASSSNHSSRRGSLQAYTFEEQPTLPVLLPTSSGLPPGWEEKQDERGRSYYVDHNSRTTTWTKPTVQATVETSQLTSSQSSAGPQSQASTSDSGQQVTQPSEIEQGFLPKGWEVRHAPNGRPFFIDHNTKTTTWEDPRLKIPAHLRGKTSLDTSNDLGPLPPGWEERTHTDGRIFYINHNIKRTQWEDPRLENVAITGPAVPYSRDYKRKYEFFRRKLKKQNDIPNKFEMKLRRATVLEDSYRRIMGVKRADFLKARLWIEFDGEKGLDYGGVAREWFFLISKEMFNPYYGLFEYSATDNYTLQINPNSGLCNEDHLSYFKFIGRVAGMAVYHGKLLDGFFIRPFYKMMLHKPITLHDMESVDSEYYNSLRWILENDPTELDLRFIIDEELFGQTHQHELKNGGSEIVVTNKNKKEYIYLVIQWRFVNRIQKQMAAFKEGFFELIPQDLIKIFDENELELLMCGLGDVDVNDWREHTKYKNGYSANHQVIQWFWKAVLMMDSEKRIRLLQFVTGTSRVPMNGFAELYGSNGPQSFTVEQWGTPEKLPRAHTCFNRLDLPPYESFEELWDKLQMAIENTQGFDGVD
As to P618R, the “effect of a mutation on the interaction” value was “decreasing interaction strength”.

For the variant Y620H, the “effect of a mutation on the interaction” value is given as “decreasing interaction strength”.

For P617S, the “effect of a mutation on the interaction” value is given as “decreasing interaction strength”.

The variants in the next experiment derive from B2. Particulars: with wwtr1_human WWTR1, Q9GZV5.
Chain of wwtr1_human WWTR1, Q9GZV5 (Q9GZV5 whole entry): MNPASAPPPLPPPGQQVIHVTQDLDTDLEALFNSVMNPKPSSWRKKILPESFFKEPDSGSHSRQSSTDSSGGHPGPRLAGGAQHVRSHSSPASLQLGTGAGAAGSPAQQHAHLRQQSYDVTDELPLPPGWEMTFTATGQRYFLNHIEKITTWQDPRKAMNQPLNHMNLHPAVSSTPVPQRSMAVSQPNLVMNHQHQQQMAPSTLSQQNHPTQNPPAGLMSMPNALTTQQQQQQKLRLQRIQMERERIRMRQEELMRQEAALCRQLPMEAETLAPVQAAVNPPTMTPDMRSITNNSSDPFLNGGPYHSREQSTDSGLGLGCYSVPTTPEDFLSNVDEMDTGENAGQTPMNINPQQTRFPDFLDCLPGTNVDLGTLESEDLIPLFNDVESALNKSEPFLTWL
With P618R, the “effect of a mutation on the interaction” value is given as “decreasing interaction strength”.

Take Y620H: the “effect of a mutation on the interaction” value is reported as “decreasing interaction strength”.

Regarding P617S, the “effect of a mutation on the interaction” value was “decreasing interaction strength”.

The variants in another experiment derive from B2. Particulars: with nedd4_human NEDD4, P46934. This is another data set of the same source.
With P616R, the “effect of a mutation on the interaction” value is recorded as “decreasing interaction strength”.

In another experiment the parent is B3. Particulars: with mlp3a_human MAP1LC3A.
L214P: the “effect of a mutation on the interaction” value is listed as “disrupting interaction strength”.

In another experiment the parent is B4. To be noted: with G3BP2, Q9UN86.
Take C48F: the “effect of a mutation on the interaction” value is on record as “causing an interaction”.

Variants of B5 are the subject of a further experiment. To be noted: with ppia_human PPIA.
Take P1180Q: the “effect of a mutation on the interaction” value was “decreasing interaction strength”.

In another experiment the parent is B6. To be noted: with cskp_human CASK.
As to S4L, the “effect of a mutation on the interaction” value is recorded as “causing an interaction”.
